Measurements reported in US20170044230A1 (USTAV ORGANICKE CHEMIE A BIOCHEMIE AV CR, V.V.I., priority 2014, published 2017).
Non-standard residues stand in square brackets, D forms with d. No end group written: not given here. *: point of attachment. Palmitoyl = CCCCCCCCCCCCCCCC(=O)*; Myristoyl = CCCCCCCCCCCCCC(=O)*; Decanoyl = CCCCCCCCCC(=O)*; Octanoyl = CCCCCCCC(=O)*; Dap = NC[C@H](N)C(=O)O; Sar = CNCC(=O)O

What was measured:
[1] = target: T1, human GHS-R1a receptor (growth hormone secretagogue receptor 1a) (human, UniProt Q92847 1-366); test: competitive displacement of 125I-ghrelin, membranes of HEK293T cells with transfected human GHS-R1a
T1 construct: whole, on cells; Functional assays: HEK-293T cells transiently transfected with human GHS-R1a; also called ghrelin receptor
T1 sequence (Q92847 whole entry): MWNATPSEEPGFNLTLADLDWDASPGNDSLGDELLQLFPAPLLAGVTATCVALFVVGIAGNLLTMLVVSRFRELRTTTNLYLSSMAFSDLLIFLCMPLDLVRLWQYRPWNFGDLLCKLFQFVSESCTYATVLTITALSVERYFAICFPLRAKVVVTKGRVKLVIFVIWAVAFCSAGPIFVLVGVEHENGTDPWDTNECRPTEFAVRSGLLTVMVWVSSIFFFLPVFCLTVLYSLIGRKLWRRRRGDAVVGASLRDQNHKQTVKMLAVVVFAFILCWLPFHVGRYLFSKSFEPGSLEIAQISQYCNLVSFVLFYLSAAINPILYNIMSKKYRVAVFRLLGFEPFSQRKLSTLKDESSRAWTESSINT
Protocol: Competitive binding studies were performed according to the principles of Motulsky and Neubig (Motulsky & Neubig, 2002). Isolated plasma membranes from the HEK293T cells with transfected human GHS-R1a receptor (Multispan, Hayward, Calif., USA) were used. […] The binding reaction was stopped by the addition of ice-cold washing buffer (20 mM Tris pH 7.4, 10 mM MgCl₂, 2.5 mM EDTA, 0.015% Triton X-100) followed by rapid filtration over GF/C filters (Whatman, Clifton, N.J., USA) presoaked with 0.5% PEI in binding buffer using a Brandel cell harvester (Brandel Inc., Gaithersburg, Md., USA). Bound radioactivity was determined by gamma counting (Wizard 1470 Automatic Gamma Counter; PerkinElmer Life and Analytical Sciences, Waltham, Mass.).

[2] = target: T1, human GHS-R1a receptor (growth hormone …); test: cell-based or functional assay

| % of ghrelin binding [1] | Ki [1] | Ca^2+ - EC50 [nM] (intracellular calcium mobilization, Fluo-4AM) [2] | IP1 - EC50 [nM] (inositol phosphate accumulation, IP-One HTRF) [2] | Binder |
| --- | --- | --- | --- | --- |
| 183% | 0.63 nM | 9.66 nM | 12.6 nM | XSXFLSPEHQKAQQRKESKKPPAKLQPR (sarcosine (Sar) at position 1; diaminopropionic acid N-decanoyl (Dpr-N-dec) at position 3, Synthetic ghrelin analog) [ghrelin analog no. 1, (Sar)S(Dpr-N-dec)FLSPEHQKAQQRKESKKPPAKLQPR] |
| 18% | 6.41 nM | 11.4 nM | 3.08 nM | XSXXLSPEHQKAQQRKESKKPPAKLQPR (sarcosine (Sar) at position 1; diaminopropionic acid N-myristoyl (Dpr-N-myr) at position 3; cyclohexylalanine (Cha) at position 4, Synthetic ghrelin analog) [ghrelin analog no. 6, (Sar)S(Dpr-N-myr)(Cha)LSPEHQKAQQRKESKKPPAKLQPR] |
| 110% | 1.04 nM | 10.6 nM | 3.28 nM | XSXXLSPEHQKAQQRKESKKPPAKLQPR (sarcosine (Sar) at position 1; diaminopropionic acid N-decanoyl (Dpr-N-dec) at position 3; cyclohexylalanine (Cha) at position 4, Synthetic ghrelin analog) [ghrelin analog no. 5, (Sar)S(Dpr-N-dec)(Cha)LSPEHQKAQQRKESKKPPAKLQPR] |
| 100% | – | – | – | GSS(Octanoyl)FLSPEHQKAQQRKESKKPPAKLQPR [Ghrelin] |
| 7% | 16.8 nM | – | – | XSXXLSPEHQKAQQRKESKKPPAKLQPR (not fully specified; sarcosine (Sar) at position 1; diaminopropionic acid N-myristoyl (Dpr-N-myr) at position 3; dichlorophenylalanine (PheCl2) at position 4, Synthetic ghrelin analog; also called analog 14) [ghrelin analog no. 14, (Sar)S(Dpr-N-myr)(PheCl2)LSPEHQKAQQRKESKKPPAKLQPR] |
| 176% | 0.65 nM | 18.6 nM | 2.08 nM | XSXXLSPEHQKAQQRKESKKPPAKLQPR (sarcosine (Sar) at position 1; diaminopropionic acid N-decanoyl (Dpr-N-dec) at position 3; 1-naphtylalanine (1-Nal) at position 4, Synthetic ghrelin analog) [ghrelin analog no. 3, (Sar)S(Dpr-N-dec)(1-Nal)LSPEHQKAQQRKESKKPPAKLQPR] |
| 2% | 51 nM | – | – | [Sar]S[Dap](Myristoyl)FLSPEHQKAQQRK(Palmitoyl)ES [ghrelin analog no. 16, (Sar)S(Dpr-N-myr)FLSPEHQKAQQRK(N-palm)ES] |
| 24% | 4.71 nM | – | – | XSXXLSPEHQKAQQRKESKKPPAKLQPR (sarcosine (Sar) at position 1; diaminopropionic acid N-octanoyl (Dpr-N-oct) at position 3; tertbutylalanine (tBu) at position 4, Synthetic ghrelin analog) [ghrelin analog no. 10, (Sar)S(Dpr-N-oct)(tBu)LSPEHQKAQQRKESKKPPAKLQPR] |
| 57% | 2.01 nM | 10.9 nM | 9.75 nM | XSXXLSPEHQKAQQRKESKKPPAKLQPR (sarcosine (Sar) at position 1; diaminopropionic acid N-myristoyl (Dpr-N-myr) at position 3; 1-naphtylalanine (1-Nal) at position 4, Synthetic ghrelin analog) [ghrelin analog no. 4, (Sar)S(Dpr-N-myr)(1-Nal)LSPEHQKAQQRKESKKPPAKLQPR] |
| 30% | 3.71 nM | – | – | [Sar]S[Dap](Decanoyl)FLSPEHQKAQQRKES [ghrelin analog no. 17, (Sar)S(Dpr-N-dec)FLSPEHQKAQQRKES] |
| 139% | 0.83 nM | – | – | XSXFLSPEHQKAQQRKESKKPPAKLQPR (sarcosine (Sar) at position 1; diaminopropionic acid N-10-undecynoyl (Dpr-N-10-undecyn) at position 3, Synthetic ghrelin analog) [ghrelin analog no. 11, (Sar)S(Dpr-N-10-undecyn)FLSPEHQKAQQRKESKKPPAKLQPR] |
| 6% | 20.8 nM | – | – | XSXXLSPEHQKAQQRKESKKPPAKLQPR (sarcosine (Sar) at position 1; diaminopropionic acid N-octanoyl (Dpr-N-oct) at position 3; cyclohexylalanine (Cha) at position 4; Lys 24 N-palmitoyl (K(N-palm)), Synthetic ghrelin analog) [ghrelin analog no. 8, (Sar)S(Dpr-N-oct)(Cha)LSPEHQKAQQRKESKKPPAK(N-palm)LQPR] |
